B1: 1H2 (scFv)
scFv: QVQLVQSGAEVKKPGSSVKVSCKASGGPFRSYAISWVRQAPGQGLEWMGGIIPIFGTANYAQKFQGRVTITADESTSTAYMELSSLRSEDTAVYYCARGGVYSFDVWGQGTLVTVSSGGGSGGGSGGGSGGGSQSGLTQPPSASGTPGQRVTISCSGSGSNVGSNVVNWYQHLPGTAPKLLIYRNNQRPSGVPDRFSGSKSGTSASLAISGLQSEDEADYYCAAWDDRLNGFVFGTGTKVTVL
B2: 1F3 (scFv)
scFv: QVQLVQSGAEVKKPGSSVKVSCKASGVIFSSYAISWVRQAPGQGLEWMGGISPIFGTANYAQKFQGRVTITADESTSTAYMELSSLRSEDTAVYYCARSRGYAPGTSFHYDVWGQGTLVTVSSGGGSGGGSGGGSGGGSLPVLTQAPSMSVAPGKTASITCGGDNIGSKSVHWYQQKPGQAPVLVMYYDSDRPSGIPERFSGSNSGNTATLTISRVEAGDEADYFCQLWDHTNSHVVFGGRTKLTVL
B3: 1E6 (scFv)
scFv: QVQLVQSGAEVKKPGSSVKVSCKASGVTFSSYAISWVRQAPGQGLEWMGGISPIFGTANYAQKFQGRVTITADESTSTAYMELSSLRSEDTAVYYCARGREYYASNGDSFDVWGQGTLVTVSSGGGSGGGSGGGSGGGSQPVLTQPPSVSVAPGKTASISCEGNNIATKSVHWYQQKSGHAPVVVVYHDSDRPSGVPDRFSGSKSGTSASLAISGLRSEDEADYYCAAWDDSLSGPWVFGGGTKLTVL
B4: 1F1 (scFv)
scFv: QVQLVQSGAEVKKPGSSVKVSCKASGGTFSSYAISWVRQAPGQGLEWMGGISAIFGTANYAQKFQGRVTITADESTRTAYMELSSLRSEDTAVYYCARGSGYYVAASGAFDVWGQGTLVTVSSGGGSGGGSGGGSGGGSQPGLTQPPSVSKGLRQTATLTCTGNINNVGDQGAGWLQQHQGRPPKLLSYRNSNRPSGVSERFSASRSGNTASLTITGLQPEDEADYYCSAWDSSLSDWVFGGGTKLTVL
B5: 1F6 (scFv)
scFv: QVQLVQSGAEVKKPGSSVKVSCKASGGTFSSYAISWVRQAPGQGLEWMGGIITIFGTANYAQKFQGRVTITADESTNTAYMELSSLRSEDTAVYYCARGGGGRFDVWGQGTLVTVSSGGGSGGGSGGGSGGGSSYELTQPPSVSGTPGQRVTISCSGSTSNIGNNALNWYQKLPGTAPKLLIYSLNQRPSGVPDRFSGSKSGTSASLAISGLQSEDEADYYCEAWDDSLSGPVFGGGTKVTVL
B6: 1F12 (scFv)
scFv: QVQLVQSGAEVKKPGSSVKVSCKASGGIFSSYAISWVRQAPGQGLEWMGGITPIFGTANYAQKFQGRVTITADESTRTAYMELSSLRSEDTAVYYCARDLSRDSLNLPGSSPGYDLWGQGTLVTVSSGGGSGGGSGGGSGGGSETTLTQSPGTLSLSPGERATLSCRASQSVSSNLAWYQQKPGQAPRLLIYGASTRATGIPARFSGSGSGTEFTLTISSLQSEDFAVYYCQQYSSSPYTFGQGTKLEIK
B7: 1H4 (scFv)
scFv: QVQLVQSGAEVKKPGSSVKVSCKASGVPFSSYAISWVRQAPGQGLEWMGGISPLFGTANYAQKFQGRVTITADQSTSTVYMELSSLRSEDTAVYYCARGLGTYSPSLYPRGMDVWGQGTLVTVSSGGGSGGGSGGGSGGGSLPVLTQPPSASGTPGQSVTISCSGSSSNIGRNDVNWYQQFPGRAPKLLIYGRDERPFGVPARFSGSKSGTSASLAISGLQSEDEADYYCAAWDASLMIYVFGTGTTVTVL
B8: 1F5 (scFv)
scFv: QVQLVQSGAEVKKPGSSVKVSCKASGGTFSSYAISWVRQAPGQGLEWMGGISPIFGTANYAQKFQGRVTITSDESTSTAYMELSSLRSEDTAVYYCARDQGGTRGNYFDVWGQGTLVTVSSGGGSGGGSGGGSGGGSQPVLTQPPSVSKGLRQTATVTCTGNSNNVGNQGAAWLQQHQGHPPKLLSYRNNNRPSGISERLSASRSGNTASLTIAGLQPEDEADYYCSAWDNTVSGWVFGGGTRVTVL

The target of the test is A/California/04/2009 (H1CA0409) recombinant HA (influenza A virus A/California/04/2009, UniProt P26140 18-529). The test can be described thus: phage display panning (immunotube) against trimeric HA.
Turning to B1, the binding result was “binds”.
As to B2, the binding result is on record as “binds”.
For B3 the value was “binds”; for B4, “binds”; for B5, “binds”.
As for B6, the binding result is “binds”.
Regarding B7, the binding result is “binds”.
The result for B8 reads “binds”.

Values taken from US20220135655A1 (Dana-Farber, published 2022).
